Test results as given in patent publication US20230324389.

B1: MMP7 (protein)
chain: YSLFPNSPKWTSKVVTYRIVSYTRDLPHITVDRLVSKALNMWGKEIPLHFRKVVWGTADIMIGFARGAHGDSYPFDGPGNTLAHAFAPGTGLGGDAHFDEDERWTDGSSLGINFLYAATHELGHSLGMGHSSDPNAVMYPTYGNGDPQNFKLSQDDIKGIQKLYGKRSNSRKK
B2: MMP2 (protein)
chain: YNFFPRKPKWDKNQITYRIIGYTPDLDPETVDDAFARAFQVWSDVTPLRFSRIHDGEADIMINFGRWEHGDGYPFDGKDGLLAHAFAPGTGVGGDSHFDDDELWTLGEGQVVRVKYGNADGEYCKFPFLFNGKEYNSCTDTGRSDGFLWCSTTYNFEKDGKYGFCPHEALFTMGGNAEGQPCKFPFRFQGTSYDSCTTEGRTDGYRWCGTTEDYDRDKKYGFCPETAMSTVGGNSEGAPCVFPFTFLGNKYESCTSAGRSDGKMWCATTANYDDDRKWGFCPDQGYSLFLVAAHEFGHAMGLEHSQDPGALMAPIYTYTKNFRLSQDDIKGIQELYGASPDIDLGTGPTPTLGPVTPEICKQDIVFDGIAQIRGEIFFFKDRFIWRTVTPRDKPMGPLLVATFWPELPEKIDAVYEAPQEEKAVFFAGNEYWIYSASTLERGYPKPLTSLGLPPDVQRVDAAFNWSKNKKTYIFAGDKFWRYNEVKKKMDPGFPKLIADAWNAIPDNLDAVVDLQGGGHSYFFKGAYYLKLENQSLKSVKFGSIKSDWLGC
B3: Legumain (protein)
chain: VPIDDPEDGGKHWVVIVAGSNGWYNYRHQADACHAYQIIHRNGIPDEQIVVMMYDDIAYSEDNPTPGIVINRPNGTDVYQGVPKDYTGEDVTPQNFLAVLRGDAEAVKGIGSGKVLKSGPQDHVFIYFTDHGSTGILVFPNEDLHVKDLNETIHYMYKHKMYRKMVFYIEACESGSMMNHLPDNINVYATTAANPRESSYACYYDEKRSTYLGDWYSVNWMEDSDVEDLTKETLHKQYHLVKSHTNTSHVMQYGNKTISTMKVMQFQGMKRKASSPVPLPPVTHLDLTPSPDVPLTIMKRKLMNTN
B4: ST14/Matriptase (protein)
chain: GSDEKDCDCGLRSFTRQARVVGGTDADEGEWPWQVSLHALGQGHICGASLISPNWLVSAAHCYIDDRGFRYSDPTQWTAFLGLHDQSQRSAPGVQERRLKRIISHPFFNDFTFDYDIALLELEKPAEYSSMVRPICLPDASHVFPAGKAIWVTGWGHTQYGGTGALILQKGEIRVINQTTCENLLPQQITPRMMCVGFLSGGVDSCQGDSGGPLSSVEADGRIFQAGVVSWGDGCAQRNKPGVYTRLPLFRDWIKENTGV

| Protein | unmasking (protease cleavage) rate (818-P1) | unmasking (protease cleavage) rate (818-C1 MB) | unmasking (protease cleavage) rate (818-C1MA) |
| --- | --- | --- | --- |
| B1 | MMP1: 818-P1>818-C1MA=818-C1 MB | MMP1: 818-P1>818-C1MA=818-C1 MB | MMP1: 818-P1>818-C1MA=818-C1 MB |
| B2 | MMP2: 818-P1>818-C1MA>818-C1 MB | MMP2: 818-P1>818-C1MA>818-C1 MB | MMP2: 818-P1>818-C1MA>818-C1 MB |
| B3 | Legumain demonstrated minimal unmasking differences | Legumain demonstrated minimal unmasking differences | Legumain demonstrated minimal unmasking differences |
| B4 | ST14 unmaking was characterized by 818-C1MA>818-P1>818-C1 MB | ST14 unmaking was characterized by 818-C1MA>818-P1>818-C1 MB | ST14 unmaking was characterized by 818-C1MA>818-P1>818-C1 MB |
